Data set [1] addresses T1, TFIIICΔtail (τ138, τ131, τ95Δtail, τ91, τ60, τ55) (Saccharomyces cerevisiae, UniProt P34111;P33339;P32367;Q06339;Q12308;Q12415 1-1160;1-1025;1-593;1-672;1-588;1-435). Nature of the data set: filter binding; 150 mM KCl, 4 C, apparent Kd, Hill coefficient 1, N=1; Buffer FB: 20 mM HEPES pH 7.5, 150 mM KCl, 2 mM MgCl2, 5 mM DTT; filter binding 1 h at 4 C; EMSA 20 min RT with 1 ug poly-dI/dC, gel at 4 C; footprint 30 min RT, DNase I 28 C. The following applies: protein: recombinant; copies: 1;1;1;1;1;1; blunt.

The target in data set [2] is T1, TFIIICΔtail (τ138, τ131, τ95Δtail, τ91, …). Nature of the data set: EMSA; not significantly changed versus A/B; 100-900 nM protein; Buffer FB: 20 mM HEPES pH 7.5, 150 mM KCl, 2 mM MgCl2, 5 mM DTT; filter binding 1 h at 4 C; EMSA 20 min RT with 1 ug poly-dI/dC, gel at 4 C; footprint 30 min RT, DNase I 28 C. The following applies: protein: recombinant; copies: 1;1;1;1;1;1; label: 32P.

B1: 85-bp tRNAHis (dsDNA)
DNA 1: TGAAAAGTCGCCATCTTAGTATAGTGGTTAGTACACATCGTTGTGGCCGATGAAACCCTGGTTCGATTCTAGGAGATGGCATTTT
DNA 2: AAAATGCCATCTCCTAGAATCGAACCAGGGTTTCATCGGCCACAACGATGTGTACTAACCACTATACTAAGATGGCGACTTTTCA
Consider B1, for which the Kd in data set [1] came out at 30 ± 1 nM.

B2: mA/B (EMSA) (dsDNA)
DNA 1: TCCATTGAAAAGTCGCCATCTAACTATTGTCGTTAGTACACATCGTTGTGGCCGATGAAACCCTGGTTCGATTCTAGGAGATGGCATTTT
DNA 2: AAAATGCCATCTCCTAGAATCGAACCAGGGTTTCATCGGCCACAACGATGTGTACTAACGACAATAGTTAGATGGCGACTTTTCAATGGA
For the molecule B2, the binding result in data set [2] is recorded as “binds”.
